Results on one molecule are retold here after article PMC3250429, “Recombinant Probiotic Expressing Listeria Adhesion Protein Attenuates Listeria monocytogenes Virulence In Vitro” (PLoS ONE, 2012).

For this test, the target named is human Hsp60 (human, UniProt P10809 27-573, biotin (biotinylated Hsp60, site not stated)). In words: cell-based or functional assay.
Chain of human Hsp60 (P10809 27-573): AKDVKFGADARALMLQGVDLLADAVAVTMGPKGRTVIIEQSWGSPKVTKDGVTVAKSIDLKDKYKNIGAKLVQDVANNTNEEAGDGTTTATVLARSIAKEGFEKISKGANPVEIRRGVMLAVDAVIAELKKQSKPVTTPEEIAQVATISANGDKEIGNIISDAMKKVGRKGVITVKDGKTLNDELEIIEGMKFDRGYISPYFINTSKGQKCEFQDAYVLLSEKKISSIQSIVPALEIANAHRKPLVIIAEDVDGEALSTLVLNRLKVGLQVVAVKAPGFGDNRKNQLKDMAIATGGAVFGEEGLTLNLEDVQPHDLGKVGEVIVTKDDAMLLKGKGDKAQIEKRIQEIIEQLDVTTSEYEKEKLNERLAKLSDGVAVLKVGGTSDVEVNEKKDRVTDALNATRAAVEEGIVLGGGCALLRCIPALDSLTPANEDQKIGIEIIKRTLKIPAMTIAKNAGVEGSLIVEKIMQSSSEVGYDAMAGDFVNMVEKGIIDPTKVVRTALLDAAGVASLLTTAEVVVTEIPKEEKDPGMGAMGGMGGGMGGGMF

B1: Listeria adhesion protein (LAP) of L. monocytogenes expressed on recombinant Lactobacillus paracasei (Lbp^LAP) (natural protein)
chain: MAIKENAAQEVLEVQKVIDRLADNGQKALKAFESYNQEQVDNIVHAMALAGLDQHMPLAKLAVEETGRGLYEDKCIKNIFATEYIWNNIKNNKTVGVINEDLQTGVIEIAEPVGVVAGVTPVTNPTSTTLFKAIIAIKTRNPIIFAFHPSAQRCSSAAAKVVYDAAIAAGAPEHCIQWVEKPSLEATKQLMNHDKVALVLATGGAGMVKSAYSTGKPALGVGPGNVPAYIDKTAKIKRSVNDIILSKSFDQGMICASEQAVIVDKEVAKEVKAEMEANNCYFVKGAEFKKLESYVINPEKGTLNPDVVGKSPAWIANQAGFKVPEDTKILVAEIKGVGDKYPLSHEKLSPVLAFIEAANQAEAFDRCEEMLVYGGLGHSAVIHSTDKEVQKAFGIRMKACRIIVNAPSAQGGIGDIYNGFIPSLTLGCGSYGKNSVSQNVSATNLLNVKRIADRRNNMQWFKLPPKIFFEKYSTQYLQKMEGVERVFIVTDPGMVQFKYVDVVIEHLKKRGNDVSYQVFADVEPDPSDVTVYKGAELMKDFKPDTIIALGGGSAMDAAKGMWLFYEHPEASFFGLKQKFLDIRKRTFKYPKLGGKAKFVAIPTTSGTGSEVTPFAVITDKENNIKYPLADYELTPDVAIVDAQYVTTVPAHITADTGMDVLTHAIESYVSVMASDYTRGLSIRAIELVFENLRESVLTGDPDAREKMHNASALAGMAFANAFLGINHSLAHKIGPEFHIPHGRANAILMPHVIRYNALKPKKHALFPRYESFRADEDYARISRIIGFPAATTEEGVKSLVDEIIKLGKDVGIDMSLKGQNVAKKDLDAVVDTLADRAFMDQCTTANPKQPLVSELKEIYLEAYKGV
On to B1, for which the “transepithelial translocation of Lbp^LAP cells through Caco-2 monolayers (transwell, 2 h), against Lbp^WT” value turned out to be 5.1 fold.
